Measurements taken from IntAct's records for PubMed 18854158.

B1: Double-strand break repair protein rad32 (Schizosaccharomyces pombe (strain ATCC 38366 / 972)), Q09683 (parent)
chain: MPNDPSDMNNELHNENTIRILISSDPHVGYGEKDPVRGNDSFVSFNEILEIARERDVDMILLGGDIFHDNKPSRKALYQALRSLRLNCLGDKPCELELLSDTSLTTGDTAVCNINYLDPNINVAIPVFSIHGNHDDPSGDGRYSALDILQVTGLVNYFGRVPENDNIVVSPILLQKGFTKLALYGISNVRDERLYHSFRENKVKFLRPDLYRDEWFNLLTVHQNHSAHTPTSYLPESFIQDFYDFVLWGHEHECLIDGSYNPTQKFTVVQPGSTIATSLSPGETAPKHCGILNITGKDFHLEKIRLRTVRPFIMKDIILSEVSSIPPMVENKKEVLTYLISKVEEAITEANAQWYEAQGTVPVVENEKPPLPLIRLRVDYTGGYQTENPQRFSNRFVGRVANATDVVQFYLKKKYTRSKRNDGLYTSAVEDIKINSLRVESLVNEYLKTNRLECLPEDSLGEAVVNFVEKDDRDAIKECVETQLNKQINLLVKKRVTEENLEQEISSIINDLPKISTTKRKDYEELPEEVSETSINIAEHTPVLKHTSSLLDHHSPLATSSSEHEMEATPSPALLKKTNKRRELPSSLTKKNTRTPQRSKEVKKVPARKLSQSTKKSDKNTQSTLLFYDPSSTTEAQYLDNEDDEILDD
partner: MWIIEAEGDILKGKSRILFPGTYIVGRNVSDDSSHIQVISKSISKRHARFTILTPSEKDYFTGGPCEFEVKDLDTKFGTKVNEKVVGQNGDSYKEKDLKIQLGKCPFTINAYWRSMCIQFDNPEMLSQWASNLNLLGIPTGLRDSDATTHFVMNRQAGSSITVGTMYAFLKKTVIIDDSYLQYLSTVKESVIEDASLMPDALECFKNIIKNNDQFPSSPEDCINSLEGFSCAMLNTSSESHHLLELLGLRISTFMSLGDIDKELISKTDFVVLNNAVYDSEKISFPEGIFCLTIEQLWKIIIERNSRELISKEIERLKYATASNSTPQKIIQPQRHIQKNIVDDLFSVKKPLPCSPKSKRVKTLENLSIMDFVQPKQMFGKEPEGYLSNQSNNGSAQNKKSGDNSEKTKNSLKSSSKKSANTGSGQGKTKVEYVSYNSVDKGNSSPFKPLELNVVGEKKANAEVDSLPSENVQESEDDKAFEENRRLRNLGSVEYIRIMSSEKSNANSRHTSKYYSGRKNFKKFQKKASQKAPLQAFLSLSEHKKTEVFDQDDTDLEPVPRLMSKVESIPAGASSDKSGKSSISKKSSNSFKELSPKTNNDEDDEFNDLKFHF
B2: Double-strand break repair protein rad32 (Schizosaccharomyces pombe (strain ATCC 38366 / 972)), Q09683 (parent)
chain: B1 chain
partner: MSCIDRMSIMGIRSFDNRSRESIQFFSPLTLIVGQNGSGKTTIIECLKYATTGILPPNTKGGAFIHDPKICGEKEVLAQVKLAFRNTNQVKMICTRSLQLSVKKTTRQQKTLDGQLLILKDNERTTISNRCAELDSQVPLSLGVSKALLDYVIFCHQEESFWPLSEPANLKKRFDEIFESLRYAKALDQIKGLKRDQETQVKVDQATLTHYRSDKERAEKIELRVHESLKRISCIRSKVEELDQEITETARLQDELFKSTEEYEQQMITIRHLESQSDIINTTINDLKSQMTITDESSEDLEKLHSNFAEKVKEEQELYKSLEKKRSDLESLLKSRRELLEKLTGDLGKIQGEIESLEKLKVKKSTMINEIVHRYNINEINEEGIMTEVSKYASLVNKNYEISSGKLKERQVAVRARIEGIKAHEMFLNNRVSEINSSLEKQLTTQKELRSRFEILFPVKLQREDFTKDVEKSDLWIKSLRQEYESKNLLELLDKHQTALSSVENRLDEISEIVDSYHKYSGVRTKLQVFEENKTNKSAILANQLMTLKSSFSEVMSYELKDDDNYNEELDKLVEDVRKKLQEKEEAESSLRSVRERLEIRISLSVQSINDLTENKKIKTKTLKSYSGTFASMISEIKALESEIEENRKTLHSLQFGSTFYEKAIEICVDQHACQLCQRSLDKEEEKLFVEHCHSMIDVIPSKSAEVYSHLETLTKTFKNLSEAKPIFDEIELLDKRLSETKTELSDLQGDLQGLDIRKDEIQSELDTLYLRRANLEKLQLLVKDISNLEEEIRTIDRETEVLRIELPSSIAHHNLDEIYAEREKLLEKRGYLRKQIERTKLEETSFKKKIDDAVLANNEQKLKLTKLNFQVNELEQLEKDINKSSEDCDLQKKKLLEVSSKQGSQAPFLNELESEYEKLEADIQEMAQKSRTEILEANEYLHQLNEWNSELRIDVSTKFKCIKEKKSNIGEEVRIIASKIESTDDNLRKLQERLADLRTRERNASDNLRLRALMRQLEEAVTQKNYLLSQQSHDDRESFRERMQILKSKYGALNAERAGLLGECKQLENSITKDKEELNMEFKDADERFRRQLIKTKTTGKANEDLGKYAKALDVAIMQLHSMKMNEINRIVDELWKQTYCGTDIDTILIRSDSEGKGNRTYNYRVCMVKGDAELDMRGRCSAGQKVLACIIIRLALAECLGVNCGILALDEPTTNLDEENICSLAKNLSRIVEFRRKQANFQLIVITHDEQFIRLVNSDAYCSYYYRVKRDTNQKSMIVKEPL

Variants of: B1
Conditions: with nbs1_schpo nbs1, O43070

| effect of a mutation on the interaction | Variant |
| --- | --- |
| decreasing interaction | L77K;L154D |

Variants of: B2
Conditions: with rad50_schpo rad50, Q9UTJ8

| effect of a mutation on the interaction | Variant |
| --- | --- |
| decreasing interaction | L77K;L154D |
